In patent publication US20250011363A1, “OPTIMIZED SHORTENED PEPTIDE THAT BINDS TO ACETYLCHOLINE RECEPTOR, AND USE THEREOF” (SKINMED CO., LTD., priority 2021, published 2025):

Target: acetylcholine receptor (Homo sapiens, UniProt P02708)
Assay: SPR binding affinity (RU) of optimized 5mer/6mer/7mer peptides, Examples 6-7
Conditions: 6mer-1 Top sequence; SPR; peptides tested at 10 μM
Method in brief: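 Synthetic 5mer and 6mer peptides, built from frequent or infrequent amino-acid combinations, were tested at 10 μM for binding to the human acetylcholine receptor by surface plasmon resonance. Binding is reported in response units (RU).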

acetylcholine receptor, sequence (P02708 21-457): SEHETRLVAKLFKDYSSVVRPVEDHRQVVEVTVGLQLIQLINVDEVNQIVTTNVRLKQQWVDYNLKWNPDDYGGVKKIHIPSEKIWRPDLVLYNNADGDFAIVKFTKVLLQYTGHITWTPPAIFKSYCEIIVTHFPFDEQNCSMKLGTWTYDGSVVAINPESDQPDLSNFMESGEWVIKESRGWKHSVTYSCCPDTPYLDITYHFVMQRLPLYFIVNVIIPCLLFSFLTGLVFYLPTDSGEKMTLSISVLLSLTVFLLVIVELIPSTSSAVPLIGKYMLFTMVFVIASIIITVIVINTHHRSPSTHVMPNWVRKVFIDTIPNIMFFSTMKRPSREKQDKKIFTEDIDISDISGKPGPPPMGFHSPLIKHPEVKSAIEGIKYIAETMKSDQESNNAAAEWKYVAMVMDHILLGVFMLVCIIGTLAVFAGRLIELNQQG

Row | Substance | Binding affinity
1 | 6mer-1-203 (RRQITR) | 142 Ru
2 | 6mer-1-204 (KKRQRR) | 154 Ru
3 | 6mer-1-205 (KRWRLR) | 133 Ru
4 | 6mer-1-206 (RRLQTR) | 121 Ru
5 | 6mer-1-207 (KKSQQR) | 151 Ru
6 | 6mer-1-208 (KRSIQR) | 122 Ru
7 | 6mer-1-209 (RKGYTR) | 121 Ru
8 | 6mer-1-211 (KKQLLR) | 123 Ru
9 | 6mer-1-212 (RRRICR) | 148 Ru
10 | 6mer-1-213 (KRRVRK) | 127 Ru
11 | 6mer-1-214 (RRSYCK) | 139 Ru
12 | 6mer-1-215 (RKRYSR) | 136 Ru
13 | 6mer-1-216 (RKSIQR) | 148 Ru
14 | 6mer-1-217 (KRVLQR) | 135 Ru
15 | 6mer-1-218 (KKQVTR) | 126 Ru
16 | 6mer-1-219 (RRLFCR) | 121 Ru
17 | 6mer-1-220 (KRQRQK) | 148 Ru
18 | 6mer-1-221 (KKWFQR) | 148 Ru
19 | 6mer-1-222 (RRRVRR) | 145 Ru
20 | 6mer-1-223 (KKRRRK) | 133 Ru
21 | 6mer-1-224 (KRGFLR) | 142 Ru

Row | Substance | Binding affinity
22 | 6mer-1-226 (RRWITR) | 128 Ru
23 | 6mer-1-227 (KRLVQK) | 139 Ru
24 | 6mer-1-228 (KRVIYK) | 139 Ru
25 | 6mer-1-229 (RRRLLR) | 153 Ru
26 | 6mer-1-230 (RKGYCK) | 128 Ru
27 | 6mer-1-231 (KRQRTK) | 136 Ru
28 | 6mer-1-232 (RRRICK) | 146 Ru
29 | 6mer-1-233 (KKWQSR) | 128 Ru
30 | 6mer-1-234 (RRGISR) | 142 Ru
31 | 6mer-1-235 (KKRYCR) | 148 Ru
32 | 6mer-1-236 (RKLISR) | 151 Ru
33 | 6mer-1-237 (RKSRYK) | 137 Ru
34 | 6mer-1-238 (KKGQQK) | 154 Ru
35 | 6mer-1-239 (RKVLCR) | 136 Ru
36 | 6mer-1-240 (RRSRRR) | 148 Ru
37 | 6mer-1-241 (RRLYYK) | 148 Ru
38 | 6mer-1-242 (KRQYLK) | 148 Ru
39 | 6mer-1-243 (KKWYLR) | 136 Ru
40 | 6mer-1-244 (RRRVQK) | 144 Ru
41 | 6mer-1-245 (RRGFRR) | 142 Ru
42 | 6mer-1-246 (RRLVSR) | 122 Ru

Row | Substance | Binding affinity
43 | 6mer-1-247 (KKVRQK) | 122 Ru
44 | 6mer-1-248 (RRLIYK) | 151 Ru
45 | 6mer-1-249 (RKGVSR) | 142 Ru
46 | 6mer-1-250 (RRVICR) | 142 Ru
47 | 6mer-1-251 (RKVQSK) | 133 Ru
48 | 6mer-1-252 (RRWIRR) | 131 Ru
49 | 6mer-1-253 (RRVQLK) | 145 Ru
50 | 6mer-1-254 (RKSLSK) | 137 Ru
51 | 6mer-1-255 (KKGFQK) | 139 Ru
52 | 6mer-1-256 (KRVRTK) | 125 Ru
53 | 6mer-1-257 (RKWVTR) | 124 Ru
54 | 6mer-1-258 (KKLQYK) | 137 Ru
55 | 6mer-1-259 (KRRYRK) | 141 Ru
56 | 6mer-1-260 (RKQRTK) | 141 Ru
57 | 6mer-1-261 (KRWVTR) | 121 Ru
58 | 6mer-1-262 (RKQLQR) | 139 Ru
59 | 6mer-1-263 (RKSYTK) | 146 Ru
60 | 6mer-1-264 (RRQYQR) | 128 Ru
61 | 6mer-1-265 (RKSVCR) | 145 Ru
62 | 6mer-1-266 (KKGRLK) | 144 Ru
63 | 6mer-1-267 (KRRLLR) | 139 Ru

Same assay, conditions: SPR, peptides tested at 10 μM; 6mer-1 Top sequence (top combinations)

Row | Substance | Binding affinity
64 | 6mer-1-107 (KKQRSR) | 131 Ru
65 | 6mer-1-108 (RRLLLR) | 139 Ru
66 | 6mer-1-109 (KKRYLR) | 148 Ru
67 | 6mer-1-110 (KRQLLK) | 121 Ru
68 | 6mer-1-111 (RKVICR) | 144 Ru
69 | 6mer-1-112 (KKWVCR) | 148 Ru
70 | 6mer-1-113 (KRGVQK) | 148 Ru
71 | 6mer-1-114 (RRQITK) | 153 Ru
72 | 6mer-1-115 (RRSLSR) | 133 Ru
73 | 6mer-1-116 (RKVRCK) | 139 Ru
74 | 6mer-1-117 (KRLFTR) | 142 Ru
75 | 6mer-1-118 (RKLQLR) | 127 Ru
76 | 6mer-1-119 (KRLQTR) | 133 Ru
77 | 6mer-1-120 (RRRYSR) | 124 Ru
78 | 6mer-1-121 (KRRYTK) | 148 Ru
79 | 6mer-1-122 (KKLIRK) | 139 Ru
80 | 6mer-1-123 (RRGVQK) | 148 Ru
81 | 6mer-1-124 (KRVQQK) | 137 Ru
82 | 6mer-1-125 (KRRLCR) | 135 Ru
83 | 6mer-1-126 (KKWIQR) | 148 Ru
84 | 6mer-1-127 (KRVIYR) | 147 Ru
85 | 6mer-1-128 (RKQFYR) | 126 Ru
86 | 6mer-1-129 (RRRQSK) | 121 Ru
87 | 6mer-1-130 (RKQVLR) | 142 Ru

Row | Substance | Binding affinity
88 | 6mer-1-131 (KRGIQR) | 142 Ru
89 | 6mer-1-132 (RRQVYR) | 153 Ru
90 | 6mer-1-133 (RKRFLR) | 154 Ru
91 | 6mer-1-134 (KKSIYR) | 128 Ru
92 | 6mer-1-135 (KRQVSR) | 123 Ru
93 | 6mer-1-136 (RRWLYK) | 148 Ru
94 | 6mer-1-137 (RRLFRR) | 121 Ru
95 | 6mer-1-138 (RKVVTR) | 124 Ru
96 | 6mer-1-139 (KRRFLR) | 122 Ru
97 | 6mer-1-140 (KRQVQR) | 148 Ru
98 | 6mer-1-141 (RKLYQK) | 141 Ru
99 | 6mer-1-142 (KKVYYK) | 123 Ru
100 | 6mer-1-143 (KRGVLR) | 145 Ru
101 | 6mer-1-144 (RKRYTR) | 148 Ru
102 | 6mer-1-145 (RKVFQR) | 141 Ru
103 | 6mer-1-146 (KRGRRR) | 139 Ru
104 | 6mer-1-147 (KKQIQR) | 125 Ru
105 | 6mer-1-148 (RKLRCR) | 146 Ru
106 | 6mer-1-149 (RRWVCK) | 131 Ru
107 | 6mer-1-150 (RKRQCR) | 142 Ru
108 | 6mer-1-151 (KRGVRR) | 145 Ru
109 | 6mer-1-152 (KRVIRR) | 154 Ru
110 | 6mer-1-153 (KKWQQR) | 146 Ru
111 | 6mer-1-154 (KKLYSR) | 153 Ru

Row | Substance | Binding affinity
112 | 6mer-1-155 (RRVRSR) | 127 Ru
113 | 6mer-1-156 (RRSVTK) | 154 Ru
114 | 6mer-1-157 (KKSLLR) | 123 Ru
115 | 6mer-1-158 (RRLIYR) | 131 Ru
116 | 6mer-1-159 (KRLRRK) | 139 Ru
117 | 6mer-1-160 (RRVIQR) | 149 Ru
118 | 6mer-1-161 (KRRYCK) | 139 Ru
119 | 6mer-1-162 (KKSLSK) | 142 Ru
120 | 6mer-1-163 (KRLQTK) | 147 Ru
121 | 6mer-1-164 (KRGQYK) | 145 Ru
122 | 6mer-1-165 (KKWFTK) | 148 Ru
123 | 6mer-1-166 (RRWYSK) | 148 Ru
124 | 6mer-1-167 (RRRYQR) | 122 Ru
125 | 6mer-1-168 (KRWFCK) | 131 Ru
126 | 6mer-1-169 (RRQQSK) | 153 Ru
127 | 6mer-1-170 (RKSFYR) | 148 Ru
128 | 6mer-1-171 (RKQFQK) | 123 Ru
129 | 6mer-1-172 (RRLIRK) | 153 Ru
130 | 6mer-1-173 (RKQYYR) | 123 Ru
131 | 6mer-1-174 (KKGVCR) | 154 Ru
132 | 6mer-1-175 (RRRIQK) | 137 Ru
133 | 6mer-1-176 (KKVYCK) | 121 Ru
134 | 6mer-1-177 (KRGYRR) | 121 Ru
135 | 6mer-1-178 (RKRYQK) | 139 Ru

Row | Substance | Binding affinity
136 | 6mer-1-179 (KRSQYR) | 148 Ru
137 | 6mer-1-180 (RKLVRK) | 146 Ru
138 | 6mer-1-181 (KKGVLR) | 148 Ru
139 | 6mer-1-182 (KRGICK) | 147 Ru
140 | 6mer-1-183 (KKGQTR) | 121 Ru
141 | 6mer-1-184 (KRQICR) | 139 Ru
142 | 6mer-1-185 (KRQLRK) | 153 Ru
143 | 6mer-1-186 (RRRVYK) | 147 Ru
144 | 6mer-1-187 (RKLFYK) | 139 Ru
145 | 6mer-1-188 (RKSLQK) | 122 Ru
146 | 6mer-1-189 (KKSYSK) | 137 Ru
147 | 6mer-1-190 (RKLYYR) | 153 Ru
148 | 6mer-1-191 (KKQILK) | 139 Ru
149 | 6mer-1-192 (KRQYQR) | 127 Ru
150 | 6mer-1-193 (KRVQLK) | 149 Ru
151 | 6mer-1-194 (RKWQRR) | 144 Ru
152 | 6mer-1-195 (KRGISR) | 122 Ru
153 | 6mer-1-196 (RKWRRK) | 142 Ru
154 | 6mer-1-197 (RRSIRR) | 139 Ru
155 | 6mer-1-198 (KRLFCR) | 148 Ru
156 | 6mer-1-199 (KKQVQK) | 151 Ru
157 | 6mer-1-200 (RKLYQR) | 142 Ru
158 | 6mer-1-201 (RRRIQR) | 151 Ru
159 | 6mer-1-202 (RRQLTK) | 154 Ru
